{
  "source": "paper doi:10.1101/2021.07.21.453268",
  "about": "(bioRxiv, 2021)",
  "binders": {"B1": {"name": "6His-3FLAG-Cdc14m (enzyme, S. cerevisiae, UniProt Q00684 1-551, looked up)", "chain": "MRRSVYLDNTIEFLRGRVYLGAYDYTPEDTDELVFFTVEDAIFYNSFHLDFGPMNIGHLYRFAVIFHEILNDPENANKAVVFYSSASTRQRANAACMLCCYMILVQAWTPHQVLQPLAQVDPPFMPFRDAGYSNADFEITIQDVVYGVWRAKEKGLIDLHSFNLESYEKYEHVEFGDFNVLTPDFIAFASPQEDHPKGYLATKSSHLNQPFKSVLNFFANNNVQLVVRLNSHLYNKKHFEDIGIQHLDLIFEDGTCPDLSIVKNFVGAAETIIKRGGKIAVHSKAGLGRTGCLIGAHLIYTYGFTANECIGFLRFIRPGMVVGPQQHWLYLHQNDFREWKYTTRISLKPSEAIGGLYPLISLEEYRLQKKKLKDDKRVAQNNIEGELRDLTMTPPSNGHGALSARNSSQPSTANNGSNSFKSSAVPQTSPGQPRKGQNGSNTIEDINNNRNPTSHANRKVVIESNNSDDESMQDTNGTSNHYPKVSRKKNDISSASSSRMEDNEPSATNINNAADDTILRQLLPKNRRVTSGRRTTSAAGGIRKISGSIKK"}},
  "biological_target": "T1, 3HA-Atg13 (S. cerevisiae, UniProt Q06628 1-738, hyper-phosphorylated (sites not given))",
  "T1 sequence (looked up)": "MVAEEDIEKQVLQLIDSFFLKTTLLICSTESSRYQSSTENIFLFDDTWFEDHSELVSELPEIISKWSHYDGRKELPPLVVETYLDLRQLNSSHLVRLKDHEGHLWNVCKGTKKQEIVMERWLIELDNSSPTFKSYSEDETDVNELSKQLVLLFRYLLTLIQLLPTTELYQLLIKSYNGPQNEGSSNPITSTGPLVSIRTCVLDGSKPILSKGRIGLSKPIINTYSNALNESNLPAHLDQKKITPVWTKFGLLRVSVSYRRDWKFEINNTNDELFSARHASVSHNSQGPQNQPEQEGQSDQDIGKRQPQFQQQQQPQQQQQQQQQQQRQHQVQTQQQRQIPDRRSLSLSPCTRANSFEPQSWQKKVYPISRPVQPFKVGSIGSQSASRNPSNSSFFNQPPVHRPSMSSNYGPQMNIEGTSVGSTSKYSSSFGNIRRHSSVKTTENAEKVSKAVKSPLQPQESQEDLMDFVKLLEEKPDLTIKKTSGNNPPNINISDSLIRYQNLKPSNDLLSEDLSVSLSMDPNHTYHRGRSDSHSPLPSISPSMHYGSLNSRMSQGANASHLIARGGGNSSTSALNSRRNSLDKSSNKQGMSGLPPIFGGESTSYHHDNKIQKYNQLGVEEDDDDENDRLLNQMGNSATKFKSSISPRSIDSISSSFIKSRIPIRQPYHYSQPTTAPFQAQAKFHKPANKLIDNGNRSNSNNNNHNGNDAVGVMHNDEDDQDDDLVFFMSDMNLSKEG",
  "assay": "pull-down",
  "data": [
    {"binder": "B1", "values": [
      {"measurement": "binding result", "value": "binds"}
    ]}
  ]
}
